The record followed here is patent US7164008B2, “Isolated complexes of endotoxin and MD-2” (priority 2003, dated 2007).

This assay deals with T1, TLR4 (Homo sapiens, UniProt O00206+Q9Y6Y9).
T1 construct: host or cells: HEK293 stably transfected with TLR4 (HEK/TLR4)
Kind of assay: HEK cell activation assay: extracellular IL-8 by ELISA. The format is cell-based. An excerpt:
Conditioned insect cell culture medium containing soluble, polyhistidine-tagged recombinant wild-type (wt) or C95Y mutant MD-2 were generated according to the method of Viriyakosol et al. (2001). A human embryonic kidney cell line (HEK293) that stably expresses TLR4 (HEK/TLR4), but lacks both CD14 and MD-2 (Yang et al., 2000), was used to evaluate the effect of MD-2 on the ability of lipooligosaccharide (LOS) to interact with TLR4 and promote activation.
FIG. 1 depicts the expression and bioactivity of recombinant MD-2-His6. FIGS. 1A and 1B depict SDS-PAGE immunoblots of control culture medium (FIG. 1A, lane 1) or medium from HiFive cells infected with recombinant baculovirus encoding wt (FIG. 1A, lane 2; FIG. 1B, lanes 1–3) or C95Y MD-2 (FIG. 1B, lane 4). MD-2 was detected using anti-(His)4 antibody. All samples represent 1 μl of culture medium except B, lanes 2 and 3, which represent 0.3 and 0.1 μl and A, lane 3, which represents molecular weight markers. In FIG. 1C, HEK/TLR4 cells were incubated in HEPES-buffered HBSS+/0.1% albumin with [^14C]-LOSagg (3 ng/ml)+/−LBP (30 ng/ml) and/or (60 μl) culture medium containing wt MD-2 (MD-2) (open bars); LOSagg+LBP and sCD14 (250 ng/ml)+/−wt (closed bars) or C95Y “MD-2” (striped bars), or [^14C]-LOS-sCD14 (2 ng LOS/ml)+/−wt or C95Y “MD-2” (closed bars). After overnight incubation, extracellular IL-8 was assayed by ELISA. In FIG. 1D, HEK/TLR4 cells were incubated with increasing amounts of wt (▪) or C95Y (◯) MD-2+[^14C]-LOS-sCD14 (2 ng/ml) and cell activation measured. Results shown are from one experiment (duplicate samples) representative of four independent experiments.
In FIG. 2, a bioactive complex (Mr˜25,000) containing MD-2 and [^14C]-LOS is formed by incubation of [^14C]-LOS-sCD14 with wt, but not C95Y, MD-2. In FIG. 2A, dialyzed control insect cell medium (◯) or medium containing wt (♦) or C95Y ( ? ) MD-2 was incubated for 30 min, 37° C. with (1:1 vol/vol) [^14C]-LOS-sCD14 in HBSS+, 10 mM HEPES and chromatographed on Sephacryl S100. Column fractions were analyzed for [^14C]-LOS. Identical results were obtained in analytical (5 ng [^14C]-LOS/ml+200 μl culture medium) or more preparative runs (reagents concentrated 20×). In FIG. 2B, peak fractions (Mr˜25,000) from treatment of [^14C]-LOS-sCD14 with wt MD-2 (FIG. 2A) were re-chromatographed on S100 in HBSS+, 10 mM HEPES without HSA; recovery of [^14C]-LOS was >80%. In FIG. 2C, HEK (□) or HEK/TLR4 (▪) were incubated overnight with the indicated amounts of LOS added as purified Mr˜25,000 (LOS-MD-2) complex. Cell activation was measured by IL-8 accumulation. Results shown correspond to one experiment, in duplicate, representative of three similar experiments. FIGS. 2D and 2E depict adsorption and elution of bioactive Mr˜25,000 complex to HisBind resin. Peak fractions of the purified complex (FIG. 2B; 10 ng [^14C]-LOS) were dialyzed against PBS and incubated with HisBind resin (0.125 ml) for 1 hr at 25° C. and processed as described in Methods. Non-adsorbed (Flow-thru) and adsorbed material eluted with 200 mM imidazole were precipitated with trichloroacetic acid to concentrate sample for SDS-PAGE/immunoblot analysis. […]
Purified [^14C]-LOSagg or [^14C]-LOS-sCD14 (3 ng LOS/ml)+/−indicated proteins (30 ng/ml LBP, 250 ng/ml sCD14, 60 μl culture medium) were incubated at 37° C. for 30 min. After this incubation, samples were analyzed by gel filtration chromatography to monitor formation of [^14C]-LOS-MD-2 and by incubation with HEK/TLR4 cells to measure cell activation. […]
Background: ELISA stands for enzyme-linked immunosorbent assay.

T1 sequence (O00206 24-839, one chain of several): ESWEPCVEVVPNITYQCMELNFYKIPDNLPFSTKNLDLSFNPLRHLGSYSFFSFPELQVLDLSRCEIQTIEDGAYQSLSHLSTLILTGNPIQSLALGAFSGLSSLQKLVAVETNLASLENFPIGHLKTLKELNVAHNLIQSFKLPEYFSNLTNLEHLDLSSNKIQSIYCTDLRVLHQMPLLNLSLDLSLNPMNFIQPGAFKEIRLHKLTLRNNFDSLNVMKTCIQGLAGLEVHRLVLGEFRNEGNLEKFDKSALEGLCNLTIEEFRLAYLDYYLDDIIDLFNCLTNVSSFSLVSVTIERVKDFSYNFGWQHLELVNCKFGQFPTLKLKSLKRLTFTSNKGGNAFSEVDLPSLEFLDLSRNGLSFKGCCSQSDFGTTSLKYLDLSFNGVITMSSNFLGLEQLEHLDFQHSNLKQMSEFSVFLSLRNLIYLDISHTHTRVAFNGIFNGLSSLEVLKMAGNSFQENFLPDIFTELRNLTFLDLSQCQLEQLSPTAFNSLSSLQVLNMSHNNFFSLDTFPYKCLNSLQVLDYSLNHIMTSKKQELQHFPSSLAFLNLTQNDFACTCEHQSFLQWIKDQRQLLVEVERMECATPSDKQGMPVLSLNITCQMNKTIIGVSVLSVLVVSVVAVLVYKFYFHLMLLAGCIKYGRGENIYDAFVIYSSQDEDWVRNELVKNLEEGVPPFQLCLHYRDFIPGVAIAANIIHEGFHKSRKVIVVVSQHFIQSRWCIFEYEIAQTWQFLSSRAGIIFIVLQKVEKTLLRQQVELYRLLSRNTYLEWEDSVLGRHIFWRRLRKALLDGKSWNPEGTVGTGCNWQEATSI

B1: wt MD-2: soluble polyhistidine-tagged recombinant wild-type MD-2 in conditioned insect cell culture medium (protein)
chain: QKQYWVCNSSDASISYTYCDKMQYPISINVNPCIELKRSKGLLHIFYIPRRDLKQLYFNLYITVNTMNLPKRKEVICRGSDDDYSFCRALKGETVNTTISFSFKGIKFSKGKYKCVVEAISGSPEEMLFCLEFVILHQPNSNHHHHHH
As for B1, the “MD-2 concentration producing maximum cell activation” value (HEK/TLR4 with [^14C]-LOS-sCD14 (2 ng/ml)) is 30 ng/mL. Also, the “activation of HEK/TLR4 cells by LOS-sCD14 (or LOSagg+LBP+sCD14) on addition of medium containing MD-2” value (IL-8 release, LOS-sCD14 2 ng LOS/ml) is recorded as “robust activation”. Also, the “inhibition of activation of HEK/TLR4 by [^14C]-LOS-MD-2 by added MD-2” value ([^14C]-LOS-MD-2 0.3 ng/ml, increasing amounts of conditioned medium) is “dose-dependent inhibition”.
